Results published in paper PMC4663627.

Molecular target: T1, p19 (GST-p19) (Cymbidium ringspot virus (CymRSV)) (UniProt P17457)
T1 sequence: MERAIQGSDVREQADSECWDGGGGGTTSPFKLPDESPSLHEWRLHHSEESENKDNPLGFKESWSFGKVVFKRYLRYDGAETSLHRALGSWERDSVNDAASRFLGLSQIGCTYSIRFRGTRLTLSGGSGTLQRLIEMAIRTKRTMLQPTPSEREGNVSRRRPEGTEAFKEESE
Assay: SiNW-FET conductance, Langmuir fit
Conditions: phosphate solution (240 uM NaH2PO4, 760 uM Na2HPO4), pH 7.4, Debye length 6.1 nm, temperature not given

“CGUACGCGGAAUACUUCGAUU / UCGAAGUAUUCCGCGUACGUU [ds-sRNA-0]” was tested, and the Kd (5'-phosphate) was 16 nM.
Work on “GCGACGCGGAAUACUUCGAUU / UCGAAGUAUUCCGCGUACGUU [ds-sRNA-2]” yielded a Kd of 227 nM.
“GCGACGCGGAAUACUUGCUUU / UCGAAGUAUUCCGCGUACGUU [ds-sRNA-3]” showed a Kd of 1140 nM.
